± gives the half width of the 95% confidence interval.
Assay: folding stability dG unfold (combined trypsin and chymotrypsin); higher = more stable
In short: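 Unfolding free energy was derived, per protease or combined, by relating Bayesian-fitted K50 values from sequencing counts to a sequence-predicted unfolded-state K50 and a shared folded-state K50. The underlying digests exposed cysteine-free mini-proteins under 80 residues, in a PA-tagged cDNA display construct, to trypsin and chymotrypsin at 11 threefold-diluted concentrations and to a no-protease condition. A filter kept only designs with AlphaFold2 dimer inter-PAE above 15.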

Row | Sequence | folding stability dG unfold
1 | SAGGSAGGSAGGSVSELPPISTKTTTTVTTTSDGTKVVYTTTTYSDGTTTTTSGPVPAASAGGSAGGSAGGS [r10_682_JUSTAS] | 1.09 ± 0.13 kcal/mol
2 | SAGGSAGGGYELRVTVYDPRTGKPVAEATFTATSPEEAEARFEEIRRALPPEYLVFAEIRPVPESAGGSAGG [r6_688_TrMRF] | 5.25 ± 0.11 kcal/mol
3 | SLKPGETKTLTLLIRTKDPEKTAEELAEEARKEIEELLPPGVKIEVKVTSVEPLPETGEVDVTVEVTVTASA [r9_706_TrMRF] | 2.97 ± 0.13 kcal/mol
4 | SAGGSAGGSAGGDPNDKPKEERRIKIKVRPTNVQRDPDNGMLWYSWRLEGLSITIMIPASAGGSAGGSAGGS [r10_962_TrROS] | 2.85 ± 0.1 kcal/mol
5 | SAGGLPGLSAEELARRLAERLREALAAAGYTVEIELTVEITVTDEDGRTRTFTFTLRIRVEPPPPPPSAGGS [r16_550_TrROS_Hall] | 4.8 ± 0.12 kcal/mol
6 | SAGGSAGGSASPVPVVEVEITPVKLPGDETAAKITVLLEGDGEPVVVWFDSKDVEKVIEEVLASAGGSAGGS [r20_238_JUSTAS] | 0.774 ± 0.11 kcal/mol
7 | SAGMKTVTVKVKISEEEREKLKELGFEIVEEKEDYLVIKVKVPPELSEEELEEAKKEGMTLEEALAKLSAGG [r19_115_TrROS_Hall] | 1.74 ± 0.27 kcal/mol
8 | SAMKTYTLPNATITVETLPGDNTIVVTVTDPESGKTTTTTVSLDDPSLTIENIIARIEEQIKAGKPVSLSAG [r14_157_JUSTAS] | 2.16 ± 0.14 kcal/mol
9 | SAGGSAGGSAGGMTITVVTEESPGPFKTVTVTTTTPLPNGTLATTTTTTFLPVSPDEPVSAGGSAGGSAGGS [r10_241_JUSTAS] | 0.983 ± 0.08 kcal/mol
10 | SAGGSAGGNKIWIPITITFMVPVRKDPDGKPKLSPEDPDRWKPVEFEIPIEIDPDPDNGKIKIWSAGGSAGG [r6_537_TrROS] | 1.26 ± 0.24 kcal/mol
11 | SAMVRIERLPDGSLLVVVESEGKEEGLEFIERFIEEIKSLGIDAEIELLSIEEIPEDPKRYRATFLIKASAG [r14_119_TrMRF] | > 6 kcal/mol
12 | SAGGEKRYLVRVRAYYRFEEGERELDLEVEVTSPEEAKELLEKIATRLRKLYPDRIRIEVEIRPLEESAGGS [r16_475_TrMRF] | 4.94 ± 0.14 kcal/mol
13 | SAGGSAGGSAGMVITKDPNGNYTVDLVLPDGTPLDSGTITLEEVEKILKERGIPLKEIFGSAGGSAGGSAGG [r11_521_JUSTAS] | 0.361 ± 0.12 kcal/mol
14 | SAGEEKEAKALAEQYAAEFAPKLGMKYEVPEVKVEKDEKTGKITVTVTVKFTFPEPRTVTKKFTIVVPKSAG [r5_381_JUSTAS] | 2.14 ± 0.27 kcal/mol
15 | SMKPITLEEALKLAEKLIEEGAKEVVIIRREDGTLLAIMEAEEASPEKVKEFLEANPNVRVLRITGSKEESA [r9_568_TrMRF] | 3.07 ± 0.12 kcal/mol
16 | SAGGMYLVKIKVKIDSPTSEKERDLYILAEPDTDVEEIVKKIPGAKNIEIEVEIIPPSENPEIASNPLSAGG [r19_339_JUSTAS] | 0.684 ± 0.25 kcal/mol

Row | Sequence | folding stability dG unfold
17 | SAGGSAGGSAMKIELTVPPGEEAELEARAKALAEAEGVEVVSVSKSPEGTYTMTVLNTVPPESAGGSAGGSA [r18_351_JUSTAS] | 0.317 ± 0.098 kcal/mol
18 | SAGGRVRLEEVEILPPLEDPEDNPDRPLLLLRVRARVEYDTPEGPREEERELVLVVSPERLEEALEALSAGG [r13_149_TrMRF] | 1.37 ± 0.16 kcal/mol
19 | SAGGSPWIFVIKIEWEPRDPDGKKKKYEYSIVITATPNQLDELLEQIKKAPPGYKIKEVKIEVFPFSAGGSA [r2_75_TrROS] | 3.82 ± 0.21 kcal/mol
20 | SAGGSAGGGMGPASFYIVTVDPNNPNVTKVESLSPSVDISLYRKKPFPIKTFSASNIEKLLKELSAGGSAGG [r6_864_JUSTAS] | 0.619 ± 0.11 kcal/mol
21 | SAGGSAGGSAGEPVEVTPLSTETVPDSDTTVTYYKVTYPGGKEAIRTVYSDGTETTTPLPSAGGSAGGSAGG [r11_637_JUSTAS] | 0.969 ± 0.17 kcal/mol
22 | SAGGSAGGSAGMKKNEKLITELTFEGPDVYVKITIEKTFDPEGNKIYFKAKIEVFAPGELSAGGSAGGSAGG [r11_237_TrMRF] | 3.67 ± 0.1 kcal/mol
23 | SAGGTIFIPWEEAEEFIENAFENGEDIEIEFFLDDGWWYKFTITGPDIDLRVVEVVPMPPPPEDPGKKSAGG [r13_839_TrROS] | 2.34 ± 0.11 kcal/mol
24 | SAGGSAPSPEVPLWRFEAPGASGGVALIEGYPGGELRVVFFTDDGRPVELTFPVVVLPPAPLEELFSAGGSA [r15_478_TrMRF] | 1.38 ± 0.075 kcal/mol
25 | SAGMTIEIEIPASTSAEEAVERVEAIVEEVRKAGKKFELTIKTSDPALAAAVRAALEAAGVPVTVEVDSAGG [r19_268_JUSTAS] | 3.28 ± 0.066 kcal/mol
26 | SAGGMKVEKNTIYIEVEKDMSAEEVAKKIAEELKKKGLKVEIKVEKKEDGTKVIRIKVDGKEIEIYASAGGS [r16_771_TrROS_Hall] | 1.51 ± 0.3 kcal/mol
27 | SAGGSAGGSAGGKKIIKVNLRIYDPVNPKVTVLPIEAPFDEIIKIAKEIAAPDQVVEISSAGGSAGGSAGGS [r10_397_TrMRF] | -0.654 ± 0.16 kcal/mol
28 | SAGEPEKVTITLVDEETGVVITIEIDKETKKITITVESEEERERARELAERLAKELEEAGIKVEILPPSAGG [r19_354_TrROS_Hall] | 2.73 ± 0.16 kcal/mol
29 | SAGMEATIEIVGHPGDKEAIAVLRPEDKTVVIYKNKDGSYTVEVFEPNPARLIERKELPLEEAIKEALSAGG [r19_188_TrMRF] | 0.987 ± 0.13 kcal/mol
30 | SADLAKNIAKKLNPDIKDVQIKDIELQPNPDNGYPVIKVELEVKMNDGPYKKSIWFMPNGFQIKIQPVPSAG [r14_397_TrROS] | 1.44 ± 0.29 kcal/mol
31 | SAGGSAGGSAAISIDLPPNSVLNISIPVTEPGGKPYTVKISVYSTPLPSNSYELNIKVTIVSAGGSAGGSAG [r3_347_JUSTAS] | 4.43 ± 0.12 kcal/mol
32 | SMFTLVLPDGSVIPVIKGDSTTTVYDPRTGRTLPIPSSTVEENSIEEIVERILAELEKLGVPAQPVEILESA [r9_1211_JUSTAS] | 1.84 ± 0.034 kcal/mol

Source: the supplement of paper PMC12764529
